# Measured values as given in publication PMC2199621 (The Journal of Cell Biology, 2001).
# Tests used:
# [1] = biological target: 6× his-S–tagged importin β (UniProt Q14974 1-876); test: ELISA
# [2] = biological target: importin β–IBB domain complex (UniProt Q14974 1-876; P52292 2-60); test: ELISA
# Sequence of importin β–IBB domain complex (Q14974 whole entry, chain 1 of 2, other chains not shown, the tested form may be a part): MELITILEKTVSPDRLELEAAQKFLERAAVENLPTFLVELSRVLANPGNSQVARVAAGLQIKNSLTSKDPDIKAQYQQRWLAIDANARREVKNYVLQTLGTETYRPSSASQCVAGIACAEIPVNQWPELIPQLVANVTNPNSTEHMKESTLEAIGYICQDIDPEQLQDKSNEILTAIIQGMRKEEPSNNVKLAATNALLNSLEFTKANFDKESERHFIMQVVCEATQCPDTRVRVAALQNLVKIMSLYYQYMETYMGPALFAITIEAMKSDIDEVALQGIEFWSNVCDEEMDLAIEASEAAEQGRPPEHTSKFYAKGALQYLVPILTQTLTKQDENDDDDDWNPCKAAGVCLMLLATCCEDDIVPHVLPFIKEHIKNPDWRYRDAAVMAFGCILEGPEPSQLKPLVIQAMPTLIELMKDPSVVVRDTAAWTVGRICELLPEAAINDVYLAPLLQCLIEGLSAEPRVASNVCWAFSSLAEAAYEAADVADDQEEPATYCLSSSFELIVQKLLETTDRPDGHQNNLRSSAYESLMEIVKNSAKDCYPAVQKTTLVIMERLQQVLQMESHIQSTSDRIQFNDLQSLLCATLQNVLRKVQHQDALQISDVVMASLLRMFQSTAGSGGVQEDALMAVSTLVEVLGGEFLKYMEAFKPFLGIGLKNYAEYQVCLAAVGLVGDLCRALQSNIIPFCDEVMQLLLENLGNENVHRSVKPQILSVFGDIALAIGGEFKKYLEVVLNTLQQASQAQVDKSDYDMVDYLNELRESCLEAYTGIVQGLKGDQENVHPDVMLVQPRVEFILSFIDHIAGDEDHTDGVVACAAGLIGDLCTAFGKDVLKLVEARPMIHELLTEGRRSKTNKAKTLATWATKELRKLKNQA
# Sequence of 6× his-S–tagged importin β (Q14974 whole entry, the tested form may be a part): as the sequence (Q14974 whole entry, chain 1 of 2, other chains not shown, the tested form may be a part) above
Binder,Kd [1],Kd [2]
"GST-tagged Nup54 (natural protein, UniProt P70582 1-510, looked up) MAFNFGAPSGTSGTSTATAAPAGGFGGFGTTTTTAGSAFSFSAPTNTGSTGLLGGTQNKGFGFGTGFGTSTGTGTGLGTGLGTGLGFGGFNTQQQQQQQQTSLGGLFSQPAQAPAQSNQLINTASALSAPTLLGDERDAILAKWNQLQAFWGTGKGYFNNNIPPVEFTQENPFCRFKAVGYSCMPNNKDEDGLVVLIFNKKETDIRSQQQQLVESLHKVLGGNQTLTVNVEGIKTLPDDQTEVVIYIVERSPNGTSRRVPATTLYAHFEQANIKTQLQQLGVTLSMTRTELSPAQIKQLLQNPPAGVDPIIWEQAKVDNPDSEKLIPVPMVGFKELLRRLKVQDQMTKQHQTRLDIISEDISELQKNQTTTMAKIAQYKRKLMDLSHRTLQVLIKQEIQRKSGYAIQAEEEQLRVQLDTIQGELNAPTQFKGRLNELMSQIRMQNHFGAVKSEEKYYIDADLLREIKQHLKQQQEGLSHLISIIKDDLEDIKLVEHGLNETIHSRGGVFS",112 ± 6.5 nM,108 ± 8.5 nM
"6× his–tagged COOH-terminal segment of human Nup153 comprising amino acids 609–1475 (domain or fragment, UniProt P49790 609-1475, looked up) LDILKSPGFASPKIDSVAAQPTATSPVVYTRPAISSFSSSGIGFGESLKAGSSWQCDTCLLQNKVTDNKCIACQAAKLSPRDTAKQTGIETPNKSGKTTLSASGTGFGDKFKPVIGTWDCDTCLVQNKPEAIKCVACETPKPGTCVKRALTLTVVSESAETMTASSSSCTVTTGTLGFGDKFKRPIGSWECSVCCVSNNAEDNKCVSCMSEKPGSSVPASSSSTVPVSLPSGGSLGLEKFKKPEGSWDCELCLVQNKADSTKCLACESAKPGTKSGFKGFDTSSSSSNSAASSSFKFGVSSSSSGPSQTLTSTGNFKFGDQGGFKIGVSSDSGSINPMSEGFKFSKPIGDFKFGVSSESKPEEVKKDSKNDNFKFGLSSGLSNPVSLTPFQFGVSNLGQEEKKEELPKSSSAGFSFGTGVINSTPAPANTIVTSENKSSFNLGTIETKSASVAPFTCKTSEAKKEEMPATKGGFSFGNVEPASLPSASVFVLGRTEEKQQEPVTSTSLVFGKKADNEEPKCQPVFSFGNSEQTKDENSSKSTFSFSMTKPSEKESEQPAKATFAFGAQTSTTADQGAAKPVFSFLNNSSSSSSTPATSAGGGIFGSSTSSSNPPVATFVFGQSSNPVSSSAFGNTAESSTSQSLLFSQDSKLATTSSTGTAVTPFVFGPGASSNNTTTSGFGFGATTTSSSAGSSFVFGTGPSAPSASPAFGANQTPTFGQSQGASQPNPPGFGSISSSTALFPTGSQPAPPTFGTVSSSSQPPVFGQQPSQSAFGSGTTPNSSSAFQFGSSTTNFNFTNNSPSGVFTFGANSSTPAASAQPSGSGGFPFNQSPAAFTVGSNGKNVFSSSGTSFSGRKIKTAVRRRK",9 ± 2.5 nM,9.4 ± 3 nM
"GST-tagged Nup58 (natural protein, UniProt P70581 1-585, looked up) MATGFSFGSGTLGSTTVAPGGTGTGSGFSFGASSTPSVGLNFGTLGSSATPASTSTSASGFGTGLFGSKPGTGFTLGGTSAGTTATTSASTTGFSLGFSKPAASATPFALPVTSTTASGLTLSSALTSAPAASTGFTLNNLGATPATTTAASTGLSLGGALAGLGGSLFQSGNTATSGLGQNALSLSLGTATPTSAASSEGLGGIDFSTSSDKKSDKTGTRPEDSKALKDENLPPVICQDVENLQKFVKEQKQVQEEISRMSSKAMLKVQEDIKALKQLLSLAASGLQRNTLNIDKLKLETAQELKNAEIALRTQKTPPGLQHENTAPADYFRVLVQQFEVQLQQYRQQIEELENHLATQANNSHITPQDLSMAMQKIYQTFVALAAQLQSIHENVKVLKEQYLSYRKMFLGDAGDVFEARRTEAKKWQNAPRVTTGPTPFSTMPNAAAVAMAATLTQQQQPATGPQPSLGVSFGTPFGSGIGTGLQSSGLGSSNLGGFGTSSGFGCGTTGASTFGFGTTDKPSGSLSAGFGSSSTSGFNFSNPGITASAGLTFGVSNPASAGFGTGGQLLQLKRPPAGNKRGKR",101 ± 2 nM,107 ± 8 nM

# The remaining lines, values ahead:
Kd [1],Kd [2],Binder
100 ± 8 nM,105 ± 6 nM,"GST-tagged Nup62 (natural protein, UniProt P17955 1-525, looked up) MSGFNFGGTGAPAGGFTFGTAKTATTTPATGFSFSASGTGTGGFNFGTPSQPAATTPSTSLFSLATQTSTTQTPGFNFGTTPASGGTGFSLGISTPKLSLSSTAATPATANTGSFGLGSSTLTNAISGASTSSQGTAPTGFVFGSSTTSAPSTGTTGFSFTSGSASQPGASGFNIGSVGSLAQPTALSGSPFTPATLATTTAGATQPAAATPTAATTSAGSTLFASIAAAPASSSTTVLSLSAPATTAATPTAGTLGFSLKAPGAAPGASTTSTTTTTTTTTTTASTSSSTTTTGFALSLKPLVPAGPSSVAATALPASSTAVGTTTGPAMTYAQLESLINKWSLELEDQERHFLQQATQVNAWDRTLIENGEKITSLHREVEKVKLDQKRLDQELDFILSQQKELEDLLSPLEESVKEQSGTIYLQHADEEREKTYKLAENIDAQLKRMAQDLKDIIEHLNMAGGPADTSDPLQQICKILNAHMDSLQWVDQSSALLQRRVEEASRVCESRRKEQERSLRIAFD"
225 ± 14.4 nM,220 ± 16 nM,"Nup358-4 (amino acids 2500–3224) (domain or fragment, UniProt P49792 2500-3224, looked up) TSETTPKAVVSPPKFVFGSESVKSIFSSEKSKPFAFGNSSATGSLFGFSFNAPLKSNNSETSSVAQSGSESKVEPKKCELSKNSDIEQSSDSKVKNLFASFPTEESSINYTFKTPEKAKEKKKPEDSPSDDDVLIVYELTPTAEQKALATKLKLPPTFFCYKNRPDYVSEEEEDDEDFETAVKKLNGKLYLDGSEKCRPLEENTADNEKECIIVWEKKPTVEEKAKADTLKLPPTFFCGVCSDTDEDNGNGEDFQSELQKVQEAQKSQTEEITSTTDSVYTGGTEVMVPSFCKSEEPDSITKSISSPSVSSETMDKPVDLSTRKEIDTDSTSQGESKIVSFGFGSSTGLSFADLASSNSGDFAFGSKDKNFQWANTGAAVFGTQSVGTQSAGKVGEDEDGSDEEVVHNEDIHFEPIVSLPEVEVKSGEEDEEILFKERAKLYRWDRDVSQWKERGVGDIKILWHTMKNYYRILMRRDQVFKVCANHVITKTMELKPLNVSNNALVWTASDYADGEAKVEQLAVRFKTKEVADCFKKTFEECQQNLMKLQKGHVSLAAELSKETNPVVFFDVCADGEPLGRITMELFSNIVPRTAENFRALCTGEKGFGFKNSIFHRVIPDFVCQGGDITKHDGTGGQSIYGDKFEDENFDVKHTGPGLLSMANQGQNTNNSQFVITLKKAEHLDFKHVVFGFVKDGMDTVKKIESFGSPKGSVCRRITITECGQI"
